From PMC10824877, “Assessment of bioactive peptides derived from laminin-111 as prospective breast cancer-targeting agents” (Amino Acids, 2024)
Entries after “also recorded” stand apart in the source; their conditions may differ. No end group written: not given here. *: point of attachment. 131I = iodine-131 radiolabel on tyrosine, [131I]*

What was measured:
[1] = Radiochemical stability in saline; type: physicochemical
Description: (§1) The radiochemical stability of the radiopeptides was evaluated in two distinct environments: in saline (n = 3), at room temperature and under refrigeration (4–8 °C), by a period of 48 h after the radiolabeling, and in serum (n = 5), at 37 °C, for up to 24 h after incubation. At predefined time intervals, aliquots were extracted and subjected to ascending chromatography, as previously detailed.

[2] = Radiochemical stability in serum; type: in vitro ADME; details: 37 °C, up to 24 h
Description: as §1

In the case of “[^131I]I-KAFDITYVRLKF: laminin-111 γ1 chain C16 peptide KAFDITYVRLKF radiolabeled with iodine-131 at the central tyrosine residue (KAFDITY(131I)VRLKF)”, the “decrease of radiochemical purity” value ([1]; after 24 h, room temperature or under refrigeration) is reported as “approximately 50%”, the radiochemical purity remaining ([1]; both storage conditions, within the specified time interval) is reported as “around 50%” and the “radiochemical stability in serum” value [2] is reported as “unstable; also recorded: radiochemical instability within the first hour”.
